This note sets out measurements from article PMC3958441, “Isl1 and Pou4f2 Form a Complex to Regulate Target Genes in Developing Retinal Ganglion Cells” (PLoS ONE, 2014).

T1: Pou4f2, full-length, His-tagged (mouse, UniProt Q63934 1-411)
T1 construct: Pou4f2 (Brn3b), mouse, full-length coding region in pET-28a(+); 411 a.a; also called Brn3b; source: E. coli, in lysate (pull-down); purified on His SpinTrap columns (EMSA); not shown: His tag, C-terminal, kept
T1 sequence (looked up): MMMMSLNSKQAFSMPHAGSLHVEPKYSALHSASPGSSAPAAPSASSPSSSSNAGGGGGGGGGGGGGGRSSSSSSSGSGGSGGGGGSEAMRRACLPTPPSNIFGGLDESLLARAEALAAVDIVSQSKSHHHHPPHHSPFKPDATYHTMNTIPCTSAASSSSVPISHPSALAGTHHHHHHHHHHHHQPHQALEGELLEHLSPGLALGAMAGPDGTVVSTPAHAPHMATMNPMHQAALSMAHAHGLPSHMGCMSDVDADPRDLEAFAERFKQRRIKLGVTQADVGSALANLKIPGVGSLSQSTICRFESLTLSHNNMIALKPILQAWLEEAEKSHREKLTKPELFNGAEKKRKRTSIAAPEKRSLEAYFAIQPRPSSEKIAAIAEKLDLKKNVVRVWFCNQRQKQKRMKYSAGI

T2: Isl1 (mouse, UniProt P61372 1-349)
T2 sequence: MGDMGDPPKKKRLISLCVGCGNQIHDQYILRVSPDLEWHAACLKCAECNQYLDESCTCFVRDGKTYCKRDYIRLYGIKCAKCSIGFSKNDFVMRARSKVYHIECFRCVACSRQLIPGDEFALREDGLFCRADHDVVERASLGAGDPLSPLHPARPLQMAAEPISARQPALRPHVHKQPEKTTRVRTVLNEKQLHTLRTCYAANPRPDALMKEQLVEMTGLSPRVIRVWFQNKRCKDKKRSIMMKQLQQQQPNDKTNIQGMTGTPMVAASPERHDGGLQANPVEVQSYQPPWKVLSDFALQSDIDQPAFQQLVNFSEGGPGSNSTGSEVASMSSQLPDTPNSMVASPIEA

T3: Pou4f2D5 (mouse, UniProt Q63934 125-411)
T3 sequence: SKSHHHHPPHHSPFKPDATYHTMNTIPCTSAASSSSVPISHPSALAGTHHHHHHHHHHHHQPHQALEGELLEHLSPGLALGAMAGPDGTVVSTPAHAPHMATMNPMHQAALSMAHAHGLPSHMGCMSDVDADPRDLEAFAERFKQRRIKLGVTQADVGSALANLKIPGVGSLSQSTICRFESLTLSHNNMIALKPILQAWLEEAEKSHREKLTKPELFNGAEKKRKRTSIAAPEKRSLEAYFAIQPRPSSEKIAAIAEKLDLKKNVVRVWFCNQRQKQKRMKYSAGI

T4: Isl1 expressed in HEK 293 cells (mouse, UniProt P61372 1-349)
T4 sequence (looked up): T2 sequence

T5: Pou4f2 (Brn3b) (mouse, UniProt Q63934 1-411)
T5 sequence: T1 sequence (looked up)

B1: Isl1D5 (a.a. 74-349) (domain or fragment, mouse, UniProt P61372 74-349, looked up)
chain: LYGIKCAKCSIGFSKNDFVMRARSKVYHIECFRCVACSRQLIPGDEFALREDGLFCRADHDVVERASLGAGDPLSPLHPARPLQMAAEPISARQPALRPHVHKQPEKTTRVRTVLNEKQLHTLRTCYAANPRPDALMKEQLVEMTGLSPRVIRVWFQNKRCKDKKRSIMMKQLQQQQPNDKTNIQGMTGTPMVAASPERHDGGLQANPVEVQSYQPPWKVLSDFALQSDIDQPAFQQLVNFSEGGPGSNSTGSEVASMSSQLPDTPNSMVASPIEA
notes: Isl1, mouse, a.a; 74-349; source: E. coli, in lysate (pull-down); purified on His SpinTrap columns (EMSA); not shown: His tag, C-terminal, kept
B2: Pou4f2D5 (a.a. 125-411) (domain or fragment, mouse, UniProt Q63934 125-411, looked up)
chain: T3 sequence
notes: Pou4f2, mouse, a.a; 125-411, POU and homeo domains intact; source: E. coli, in lysate (pull-down); purified on His SpinTrap columns (EMSA); not shown: His tag, C-terminal, kept
B3: EBF3(W) (dsDNA)
DNA 1: GTGCGTTAATATTTTAATTAATCGGGAAAA
DNA 2: TTTTCCCGATTAATTAAAATATTAACGCAC
B4: Isl1D3 (a.a. 170-349) (domain or fragment, mouse, UniProt P61372 170-349, looked up)
chain: LRPHVHKQPEKTTRVRTVLNEKQLHTLRTCYAANPRPDALMKEQLVEMTGLSPRVIRVWFQNKRCKDKKRSIMMKQLQQQQPNDKTNIQGMTGTPMVAASPERHDGGLQANPVEVQSYQPPWKVLSDFALQSDIDQPAFQQLVNFSEGGPGSNSTGSEVASMSSQLPDTPNSMVASPIEA
notes: Isl1, mouse, a.a; 170-349, only the homeodomain and the C terminal region, none of the Lim domains; source: E. coli, in lysate (pull-down); purified on His SpinTrap columns (EMSA); not shown: His tag, C-terminal, kept
B5: Isl1D4 (a.a. 146-349) (domain or fragment, mouse, UniProt P61372 146-349, looked up)
chain: PLSPLHPARPLQMAAEPISARQPALRPHVHKQPEKTTRVRTVLNEKQLHTLRTCYAANPRPDALMKEQLVEMTGLSPRVIRVWFQNKRCKDKKRSIMMKQLQQQQPNDKTNIQGMTGTPMVAASPERHDGGLQANPVEVQSYQPPWKVLSDFALQSDIDQPAFQQLVNFSEGGPGSNSTGSEVASMSSQLPDTPNSMVASPIEA
notes: Isl1, mouse, a.a; 146-349; source: E. coli, in lysate (pull-down); purified on His SpinTrap columns (EMSA); not shown: His tag, C-terminal, kept
B6: IRX6(W) (dsDNA)
DNA 1: GTACTACTAATTAATTAATTGCAAACATTTC
DNA 2: GGAAATGTTTGCAATTAATTAATTAGTAGTA
B7: EBF3(M) (dsDNA)
DNA 1: GTGCGTTGCTATTTTCGTTGCTCGGGAAAA
DNA 2: TTTTCCCGAGCAACGAAAATAGCAACGCAC
B8: IRX6(M) (dsDNA)
DNA 1: TACTACTGCTTCGTTGCTTGCAAACATTTC
DNA 2: GGAAATGTTTGCAAGCAACGAAGCAGTAGTA
B9: Pou4f2 expressed in HEK 293 cells (natural protein, mouse, UniProt Q63934 1-411, looked up)
chain: T1 sequence (looked up)
B10: CBRN3(M) (dsDNA)
DNA 1: GATCTCTCCTGCGCGGTTGACTACCCCCGGAT
DNA 2: GATCCGGGGGTAGTCAACCGCGCAGGAGAGAT
B11: Isl1, full-length, His-tagged (natural protein, mouse, UniProt P61372 1-349, looked up)
chain: T2 sequence
notes: Isl1, mouse, full-length coding region in pET-28a(+); 349 a.a; source: E. coli, in lysate (pull-down); purified on His SpinTrap columns (EMSA); not shown: His tag, C-terminal, kept
B12: SBRN3(M) (dsDNA)
DNA 1: GCACACGACCCAGCGCGTTGACAACCGGGCTG
DNA 2: GCAGCCCGGTTGTCAACGCGCTGGGTCGTGTG

The target in data set [1] is T1, Pou4f2, full-length, His-tagged. The data set is described as follows: native gel or EMSA; EMSA with purified His-tagged proteins (200 ng each) and radiolabelled DNA probes (SBRN3, CBRN3; Ebf3 and Irx6 for Isl1 with Pou4f2D5); protein-protein complex read from a slower migrating ternary complex on DNA; 20 mM Tris-HCl pH 7.5, 0.05 M NaCl, 10 mM DTT, 1 mM EDTA, 5% glycerol, 4 C. As to conditions: both partners purified. A general note: A gel shift assay detects complexes by their altered migration in electrophoresis.

Data set [2] addresses B11. Described as above. The following applies: both partners purified.
The next data set has as its target T2, Isl1. The data set is described as follows: EMSA; EMSA: 20 mM Tris-HCl pH 7.5, 50 mM NaCl, 10 mM DTT, 1 mM EDTA, 5% glycerol, 200 ng dI/dC, 200 ng each protein in 20 ul, 4 C, 30 min; 8% PAGE, 1x TBE, 4 C. The following applies: protein: recombinant, tags: His (C-terminal, pET-28a).
A further data set deals with T3, Pou4f2D5. Described as above. As to conditions: protein: recombinant, tags: His (C-terminal).
The target of data set [3] is T4, Isl1 expressed in HEK 293 cells. The data set can be described thus: cell-based or functional assay.
A further data set concerns the target T5, Pou4f2 (Brn3b). The data set is described as follows: EMSA; EMSA: 20 mM Tris-HCl pH 7.5, 50 mM NaCl, 10 mM DTT, 1 mM EDTA, 5% glycerol, 200 ng dI/dC, 200 ng each protein in 20 ul, 4 C, 30 min; 8% PAGE, 1x TBE, 4 C. As to conditions: protein: recombinant; tags: His (C-terminal, pET-28a); (radiolabel, Klenow fill-in); 5' overhang 1 nt at both ends before fill-in.

Setting [4] is: (radiolabel, Klenow fill-in), 5' overhang 1 nt at both ends before fill-in.
Where [5] appears, read: (radiolabel, Klenow fill-in), one end blunt, lower strand 5' overhang 1 nt before fill-in.

With B1, in data set [1], the binding result is “binds”.

On to B2, for which, in data set [2], the binding result is reported as “binds”.

For the molecule B3, the binding result with Isl1 ((radiolabel, Klenow), blunt) is “binds”; in the data set with Pou4f2D5 ((radiolabel, Klenow), blunt), “binds”.

Regarding B4, the binding result in data set [1] was “binds”.

B5: the binding result in data set [1] is “binds”.

With B6, the binding result with Isl1 (setting [4]) and with Pou4f2D5 (setting [4]) was “binds” each time.

Regarding B7, the binding result is “no binding” with Isl1 ((radiolabel, Klenow), blunt) and “no binding” in the data set with Pou4f2D5 ((radiolabel, Klenow), blunt).

B8: the binding result with Isl1 (setting [5]) and in the data set with Pou4f2D5 (setting [5]) was “no binding” each time.

B9: the “luciferase reporter with the CBRN3 motif in HEK 293 cells, both expression constructs co-transfected, fold increase from the control (each factor alone about 2.5 fold)” value in data set [3] is ~3.5 fold.

Consider B10, for which the binding result with Isl1 (setting [4]) and with Pou4f2 (Brn3b) was “no binding” each time.

Take B11: the binding result in data set [1] is recorded as “binds”.

B12: the binding result with Isl1 (setting [4]) and with Pou4f2 (Brn3b) was “no binding” each time.
